The values below come from publication PMC7039627.

This assay addresses extracellular domain of hCTLA-4 (Homo sapiens) (UniProt P16410). Kind of assay: SPR. (In general: SPR reads the build-up and loss of mass on a sensor chip optically.)
UniProt P16410, sequence (P16410 36-161): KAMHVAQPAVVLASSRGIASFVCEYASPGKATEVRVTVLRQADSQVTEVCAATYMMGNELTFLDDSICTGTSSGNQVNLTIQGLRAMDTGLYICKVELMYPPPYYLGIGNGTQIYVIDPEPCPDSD

The term Kd denotes the concentration at which binding is half-saturated. Higher therefore signals lower affinity. Substance Ipilimumab (antibody) displayed a dissociation constant (Kd) of 3.68 nM.
